Reference: US20240141025A1 (PROTHENA BIOSCIENCES, published 2024)
Changes are numbered by the printed parent chain. Where two headings read alike, the source gives them in different places. One block for each binder: values may come before it.

Legend:
[1] = target: T1, recombinant human TTR F87M/L110M (human, UniProt P02766 21-147); test: SPR (Biacore), mAb captured on anti-human chip, TTR F87M/L110M as analyte
[2] = target: T1, recombinant human TTR F87M/L110M; test: as above; remark: listed apart in the source

B1: Hu14G8 H2L1 (antibody, human IgG1, kappa, V domains shown)
VH: EVQLVESGGGLVQPGGSLKLSCAASGFTFSSYTMSWVRQTPEKRLELVAEINNSGDTTYYPDTVKGRFTISRDNAKNTLYLQMSSLKSEDTAMYYCARHYYYGGGYGGWFFDVWGQGTLVTVSS
VL: DIVMTQSAPSLPVTPGESVSISCRSNKSLLHSNGNTYLYWFLQKPGQSPQLLIYRVSNLASGVPDRFSGSGSGTAFTLKISRVEAEDVGVYYCMQHLEYPLTFGQGTKLEIKR
notes: also called humanized 14G8 VHv2/VLv1
Kd [1]: 2.26 nM
koff [1]: 0.000693 s⁻¹
kon [1]: 307000 M⁻¹ s⁻¹

B2: Hu9D5 H3L1 (antibody, human IgG1, kappa, V domains shown)
VH: EVQLVESGGGLVQPGGSLRLSCAASGFTFSSYTMSWVRQAPGKGLEWVSEISNSGDTTYYPDTVKGRFTFSRDNAKNSLYLQSNLLRAEDTAVYYCARHYYYGGGYGGWFFDVWGQGTTVTVSS
VL: B1 VL with A8P, P9L, S18P, V19A, N26S, A75D
notes: also called humanized 9D5 VHv3/VLv1
Kd [2]: 4.32 nM
koff [2]: 0.000657 s⁻¹
kon [2]: 152000 M⁻¹ s⁻¹

B4: Hu9D5 H2L5 (antibody, human IgG1, kappa, V domains shown)
VH: B2 VH with W47L, S49A
VL: B1 VL with N26S, K44R, D65S, K79R
notes: also called humanized 9D5 VHv2/VLv5
Kd [2]: 6.84 nM
koff [2]: 0.000785 s⁻¹
kon [2]: 115000 M⁻¹ s⁻¹

B5: Hu9D5 H4L1 (antibody, human IgG1, kappa, V domains shown)
VH: B2 VH with F70I
VL: B1 VL with A8P, P9L, S18P, V19A, N26S, A75D
notes: also called humanized 9D5 VHv4/VLv1
Kd [2]: 2.09 nM
koff [2]: 0.000533 s⁻¹
kon [2]: 254000 M⁻¹ s⁻¹

B7: Hu14G8 H2L2 (antibody, human IgG1, kappa, V domains shown)
VH: B1 VH
VL: B1 VL with A8P, P9L, S18P, V19A, A75D
notes: also called humanized 14G8 VHv2/VLv2
Kd [1]: 2.1 nM
koff [1]: 0.000683 s⁻¹
kon [1]: 326000 M⁻¹ s⁻¹

Results, then the binder that gave them:

Kd [1]: 1.24 nM
koff [1]: 0.000318 s⁻¹
kon [1]: 252000 M⁻¹ s⁻¹
B3: Hu14G8 H2L3 (antibody, human IgG1, kappa, V domains shown)
VH: B1 VH
VL: B1 VL with A8P, P9L, S18P, V19A, N26S, D65S, A75D
notes: also called humanized 14G8 VHv2/VLv3

Kd [1]: 1.76 nM
koff [1]: 0.000677 s⁻¹
kon [1]: 386000 M⁻¹ s⁻¹
B6: Hu14G8 H3L1 (antibody, human IgG1, kappa, V domains shown)
VH: B1 VH with S84N, K87R, S88A, M93V
VL: B1 VL
notes: also called humanized 14G8 VHv3/VLv1
